{
  "source": "patent US11788108B2",
  "about": "“CMP-dependent sialidase activity” (Roche Diagnostics Operations, Inc., priority 2014, dated 2023)",
  "molecules": {"B1": {"name": "Δ108 hST6Gal-I: soluble human β-galactoside-α-2,6-sialyltransferase I variant lacking N-terminal amino acids from position 1 to 108 (protein)", "chain": "LQKIWKNYLSMNKYKVSYKGPGPGIKFSAEALRCHLRDHVNVSMVEVTDFPFNTSEWEGYLPKESIRTKAGPWGRCAVVSSAGSLKSSQLGREIDDHDAVLRFNGAPTANFQQDVGTKTTIRLMNSQLVTTEKRFLKDSLYNEGILIVWDPSVYHSDIPKWYQNPDYNFFNNYKTYRKLHPNQPFYILKPQMPWELWDILQEISPEEIQPNPPSSGMLGIIIMMTLCDQVDIYEFLPSKRKTDVCYYYQKFFDSACTMGAYHPLLYEKNLVKHLNQGTDEDIYLLGKATLPGFRTIHC", "modifications": "delta108 truncation variant of hST6Gal-I"}, "B2": {"name": "Δ89 hST6Gal-I: human β-galactoside-α-2,6-sialyltransferase I variant with truncation deletion of the first 89 N-terminal amino acids (protein)", "chain": "EASFQVWNKDSSSKNLIPRLQKIWKNYLSMNKYKVSYKGPGPGIKFSAEALRCHLRDHVNVSMVEVTDFPFNTSEWEGYLPKESIRTKAGPWGRCAVVSSAGSLKSSQLGREIDDHDAVLRFNGAPTANFQQDVGTKTTIRLMNSQLVTTEKRFLKDSLYNEGILIVWDPSVYHSDIPKWYQNPDYNFFNNYKTYRKLHPNQPFYILKPQMPWELWDILQEISPEEIQPNPPSSGMLGIIIMMTLCDQVDIYEFLPSKRKTDVCYYYQKFFDSACTMGAYHPLLYEKNLVKHLNQGTDEDIYLLGKATLPGFRTIHC", "modifications": "delta89 truncation variant of hST6Gal-I", "notes": "human β-galactoside-α-2,6-sialyltransferase I variant with truncation deletion of the first 89 N-terminal amino acids"}},
  "key": {"Δ89 hST6Gal-I": {"biological_target": "T1, Δ89 hST6Gal-I (Homo sapiens, UniProt P15907)", "T1 construct": "Erythropoietin signal peptide (Epo) (N, cleaved yes); AP spacer (N, cleaved yes); made in house; host or cells: HEK 293 cells (transient expression, secreted)", "T1 sequence (P15907 90-406)": "B2 chain", "test": "Inhibition of sialidase activity of Δ89 hST6Gal-I by CTP", "type": "biochemical", "description": "The compound cytidine-5′-triphosphate (CTP) is a known potent inhibitor of sialyltransferases (Scudder P R & Chantler E N BBA 660 (1981) 136-141). […] In the first phase of the experiment the sialylation of IgG4 MAB by Δ89 hST6Gal-I was performed to achieve a high content of G2+2SA (see Example 10). After 7 h of incubation the G2+2SA content was 94%. Subsequently, CTP was added to inhibit the sialidase activity of Δ89 hST6Gal-I (final concentration of CTP: 0.67 mM). At different times samples were taken and the content of G2+0SA, G2+1SA and G2+2SA was determined by mass spectrometry. […] After 72 h of incubation 73% of G2+2SA were still present."}, "[1]": {"biological_target": "T2, α-2,6-sialyltransferase from rat liver (Rattus norvegicus, UniProt P13721)", "T2 construct": "host or cells: rat liver", "T2 sequence (P13721 1-403)": "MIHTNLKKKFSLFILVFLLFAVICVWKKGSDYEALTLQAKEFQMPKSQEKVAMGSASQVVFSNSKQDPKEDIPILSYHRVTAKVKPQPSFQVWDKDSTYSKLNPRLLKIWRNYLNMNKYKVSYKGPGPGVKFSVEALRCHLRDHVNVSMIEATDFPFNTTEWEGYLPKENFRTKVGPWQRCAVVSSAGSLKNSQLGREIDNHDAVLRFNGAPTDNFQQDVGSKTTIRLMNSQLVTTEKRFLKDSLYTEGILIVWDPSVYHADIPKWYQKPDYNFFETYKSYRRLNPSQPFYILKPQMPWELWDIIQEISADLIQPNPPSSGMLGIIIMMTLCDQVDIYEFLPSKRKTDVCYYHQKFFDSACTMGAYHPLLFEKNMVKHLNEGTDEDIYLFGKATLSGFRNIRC", "conditions": "each inhibitor at 0.25 mM; cited from earlier work"}, "IgG1 MAB G2+2SA": {"system": "IgG1 MAB G2+2SA", "test": "Sialidase activity on IgG1 MAB G2+2SA in the presence and absence of CMP", "type": "biochemical", "conditions": "for sialidase activity in the presence of CMP: CMP 10-fold molar excess, 37° C., pH 6.5, 125 μg enzyme/1,250 μg IgG1 MAB", "description": "Cytidine monophosphate (5′-CMP, =CMP) is a product of the reaction catalyzed by sialyltransferase enzymes, generated in the course of the glycosyltransferase reaction from the co-substrate CMP-NANA. With incubation time of a sialylation reaction CMP accumulates in the reaction mixture.\nTo an amount of 1,250 μg (in 194 μL) highly sialylated IgG1 MAB according to Example 12 with an incubation period for sialylation of 8 h, 125 μg sialyltransferase variant (30 μg/300 μg IgG1 MAB) was added.\nDifferent N-terminally truncated hST6Gal-I enzyme variants were tested for CMP-dependent sialidase activity: • Δ89 hST6Gal-I (Example 9) • Δ108 hST6Gal-I (Example 9) • Δ57 hST3Gal-I (obtained from R&D Systems)\nFour different experiments were made using Δ89 hST6Gal-I (16.8 μL with 125 μg), Δ108 hST6Gal-I (17.3 μL with 125 μg), Δ57 hST3Gal-I (20.1 μL with 125 μg) and a negative control (no enzyme, 20.1 μL ultrapure water). The enzymes were tested for sialidase activity in the absence and presence of CMP (10-fold excess based on molarity). The concentrations were as shown as follows:\nThe samples were incubated at 37° C. in 20 mM sodium citrate, 35 mM Tris pH 6.5. Aliquots were taken as samples after different incubation times, and were analyzed.\nTo analyze the degree of sialylation of IgG1 MAB in the samples, 124 μL denaturing buffer (6 M Guanidinium chloride in water) and 30 μL TCEP (=tris(2-carboxyethyl)phosphine; 0.1 mM, diluted in denaturing buffer) were added to 76 μL (corresponding to 250 μg IgG1 MAB) and the sample was incubated at 37° C. for 1 h. After that the sample was buffered in electrospray medium (20% ACN (=acetonitrile), 1% FA (=formamide)) using pre-equilibrated ILLUSTRA™ NAP™5-Columns (GE-Healthcare). Subsequently the sample was analyzed by electrospray ionization mass spectrometry and the content of G2+0SA, G2+1SA and G2+2SA N-glycans was determined. A Synapt G2 HDMS device (Waters UK) was used, the software used was MassLynx V 4.1."}, "asialofetuin": {"system": "asialofetuin", "test": "Test for sialyltransferase enzymatic activity (transfer of sialic acid from CMP-9-fluoro-NANA to asialofetuin)", "type": "biochemical", "conditions": "recombinant enzyme purified from HEK cells", "description": "Asialofetuin (desialylated fetuin, Roche Applied Science) was used as acceptor and CMP-9-fluoro-NANA (CMP-9-fluoresceinyl-NeuAc) was used as donor substrate (Brossmer, R. & Gross H. J. (1994) Meth. Enzymol. 247, 177-193). Enzymatic activity of a sialyltransferase was determined by measuring the transfer of sialic acid from the donor compound to asialofetuin. The reaction mix (35 mM MES, pH 6.0, 0.035% TRITON™ X-100 (C16H26O2), 0.07% BSA) contained 2.5 μg of enzyme sample, 5 μL asialofetuin (20 mg/mL) and 2 μL CMP-9-fluoro-NANA (1.0 mg/mL) in a total volume of 51 μL. The reaction mix was incubated at 37° C. for 30 min. The reaction was stopped by the addition of 10 μL of the inhibitor CTP (10 mM). The reaction mix was loaded onto a PD10 desalting column equilibrated with 0.1 M Tris/HCl, pH 8.5. Fetuin was eluted from the column using the equilibration buffer. The fractions size was 1 mL. The concentration of formed fetuin was determined using a fluorescence spectrophotometer. Excitation wave length was 490 nm, emission was measured at 520 nm. Enzymatic activity was expressed as RFU (relative fluorescence unit). 10,000 RFU/μg is equivalent to a specific activity of 0.0839 nmol/μg×min."}, "IgG4 MAB": {"system": "IgG4 MAB", "test": "Sialylation of humanized monoclonal antibody IgG4 MAB using Δ89 hST6Gal-I, mass spectrometry", "type": "biochemical", "description": "A highly galactosylated humanized monoclonal antibody IgG4 MAB was used in sialylation experiments. The reaction mixture contained IgG4 MAB (300 μg in 55 μL 35 mM sodium actetate/Tris buffer pH 7.0), the donor substrate CMP-NANA (150 μg in 50 μL water) and sialyltransferase (30 μg Δ89 hST6Gal-I in 20 mM potassium phosphate, 0.1 M NaCl, pH 6.5). The samples were incubated at 37° C. for a defined time. To stop the reaction the samples were frozen at −20° C. For mass analysis 100 μL denaturing buffer (6 M guanidinium chloride) and 30 μL TCEP (=tris(2-carboxyethyl)phosphine; 0.1 mM, diluted in denaturing buffer) were added to the samples and the samples were incubated at 37° C. for 1 h. The samples were buffered in electrospray medium [20% ACN (=acetonitrile), 1% FA (=formamide)] using pre-equilibrated Illustra™ Nap5-Columns (GE-Healthcare). Samples were analyzed by electrospray ionization mass spectrometry and the content of G2+0SA, G2+1SA and G2+2SA N-glycans was determined. A Micromass Q-Tof Ultima and a Synapt G2 HDMS device (Waters UK) were used, the software used was MassLynx V 4.1. To determine the kinetics of the sialylation the reaction was incubated up to 72 h."}, "[2]": {"biological_target": "T3, CMP-dependent sialidase activity of Δ89 hST6Gal-I (Homo sapiens, UniProt P15907)", "T3 construct": "Erythropoietin signal peptide (Epo) (N, cleaved yes); AP spacer (N, cleaved yes); made in house; host or cells: HEK 293 cells (transient expression, secreted)", "T3 sequence (P15907 90-406)": "B2 chain", "test": "Sialylation of IgG4 MAB using Δ89 hST6Gal-I in the presence of phosphatase enzymatic activity", "type": "biochemical", "conditions": "CMP degraded by dephosphorylating enzymes", "description": "Suppression of CMP-dependent sialidase activity of Δ89 hST6Gal-I was studied by continuous removal of CMP formed during the reaction.\nIn the experiments the enzymes (i) 5′-nucleotidase (EC 3.1.3.5) having a wide specificity for 5′-nucleotides, and (ii) alkaline phosphatase (EC 3.1.3.1) (both provided by commercial suppliers) were used. The particular 5′-nucleotidase used here is also known as ecto-5′-nucleotidase or CD73 (Cluster of Differentiation 73), in humans encoded by the NT5E gene. Both enzymes dephosphorylate CMP, i.e. catalyze hydrolysis of the phosphoester bond in CMP. In the experiments of this Example the enzymes were used to degrade CMP generated by the sialyltransferase reaction from the co-substrate CMP-NANA.\nTo 1,000 μg IgG4 MAB (182 μL) 500 μg CMP-NANA (3 mg/mL, 166.7 μL), 100 μg Δ89 hST6Gal-I (13.4 μL, 30 μg/300 μg IgG4 MAB) and different amounts of nucleotidase (Nu) and alkaline phosphatase (AP) were added. As Zn^2+ ions are essential for the activity of AP, these were added to a final concentration of 0.1 mM). The buffer used was 20 mM sodium acetate/Tris, pH 6.5. […]\nAfter addition of the respective amounts of enzymes the samples were incubated at 37° C. […] Then the sample was analyzed by electrospray ionization mass spectrometry, and the content of G2+0SA, G2+1SA and G2+2SA N-glycans was determined. […]"}},
  "data": [
    {"molecule": "Nc1ccn([C@@H]2O[C@H](COP(=O)(O)OP(=O)(O)OP(=O)(O)O)[C@@H](O)[C@H]2O)c(=O)n1", "note": "[CTP, cytidine-5′-triphosphate]", "values": [
      {"measurement": "degradation of G2+2SA caused by the sialidase activity", "setting": "Δ89 hST6Gal-I; CTP 0.67 mM, compared to inhibitor-free conditions", "value": "significantly reduced"},
      {"measurement": "G2+2SA still present", "setting": "Δ89 hST6Gal-I; after 72 h of incubation, CTP final concentration 0.67 mM added after 7 h", "value": 73, "unit": "%"}
    ]},
    {"molecule": "Nc1ccn([C@@H]2O[C@H](CO)[C@@H](OP(=O)(O)O)[C@H]2O)c(=O)n1", "note": "[3′-CMP]", "values": [
      {"measurement": "inhibition of α-2,6-sialyltransferase", "setting": "[1]", "value": 39, "unit": "%"}
    ]},
    {"molecule": "Nc1ccn([C@@H]2O[C@H](CO)[C@@H](O)[C@H]2OP(=O)(O)O)c(=O)n1", "note": "[2′-CMP]", "values": [
      {"measurement": "inhibition of α-2,6-sialyltransferase", "setting": "[1]", "value": 40, "unit": "%"}
    ]},
    {"molecule": "B1", "values": [
      {"measurement": "sialidase activity in the presence of CMP", "setting": "IgG1 MAB G2+2SA", "value": "did not show any sialidase activity"},
      {"measurement": "specific activity", "setting": "asialofetuin", "value": "> 600", "unit": "RFU/pg"}
    ]},
    {"molecule": "B2", "values": [
      {"measurement": "content of the bi-sialylated form G2+2SA", "setting": "IgG4 MAB; after 2 h of incubation, 37° C., 30 μg enzyme/300 μg IgG4 MAB", "value": 88, "unit": "%"},
      {"measurement": "G2+2SA content", "setting": "IgG4 MAB; after 7 h of incubation, before CTP addition", "value": 94, "unit": "%"},
      {"measurement": "G2+1SA content", "setting": "IgG4 MAB; after an incubation of 48 h, 37° C.", "value": 71, "unit": "%"},
      {"measurement": "intrinsic sialidase activity in the absence of CMP", "setting": "[2]", "value": "no intrinsic sialidase activity"},
      {"measurement": "sialidase activity in the presence of CMP", "setting": "IgG1 MAB G2+2SA", "value": "showed a CMP-dependent sialidase activity"},
      {"measurement": "degradation of G2+2SA without CMP", "setting": "IgG1 MAB G2+2SA; reaction mixture without CMP, incubation for 46 h", "value": "no degradation"},
      {"measurement": "specific activity", "setting": "asialofetuin", "value": 3.75, "unit": "nmol/pg/min"}
    ]}
  ]
}
